{
  "source": "paper PMC5992149",
  "target": "receptor for advanced glycation end products (human (endogenous in MDA-MB-231)) (UniProt Q15109)",
  "sequence (Q15109 23-404)": "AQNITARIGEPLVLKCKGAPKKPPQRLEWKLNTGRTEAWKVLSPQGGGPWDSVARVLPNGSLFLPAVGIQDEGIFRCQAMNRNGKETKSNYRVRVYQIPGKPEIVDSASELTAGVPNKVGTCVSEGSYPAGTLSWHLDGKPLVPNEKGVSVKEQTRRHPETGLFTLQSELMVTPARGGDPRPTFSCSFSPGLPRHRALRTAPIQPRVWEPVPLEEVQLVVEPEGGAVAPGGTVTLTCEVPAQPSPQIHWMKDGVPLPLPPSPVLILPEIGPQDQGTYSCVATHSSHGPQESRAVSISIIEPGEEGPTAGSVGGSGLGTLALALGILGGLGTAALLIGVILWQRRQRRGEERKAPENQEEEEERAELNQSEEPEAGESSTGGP",
  "data": [
    {"substance": "recombinant human Ac-APE1/Ref-1 (from UniProt P27695 1-318) (natural protein)", "values": [
      {"measurement": "DNA fragmentation of hyperacetylated MDA-MB-231 cells treated with rh Ac-APE1/Ref-1 after pretreatment with anti-APE1/Ref-1 antibody (2 µg, 2 h), against anti-IgG treated cells", "value": 35, "unit": "%"},
      {"measurement": "cell viability of hyperacetylated MDA-MB-231 cells treated with rh Ac-APE1/Ref-1 after pretreatment with anti-APE1/Ref-1 antibody (2 µg, 2 h)", "value": 72.8, "unit": "%"}
    ]}
  ]
}
